The source of these data is patent publication US9603922B2, “Modulation of NKT cell activity with antigen-loaded CD1d molecules” (VACCINEX, INC., priority 2007, dated 2017).

One experiment deals with B16 melanoma cells. Put plainly: Pretreatment and B16 melanoma lung metastasis. The conditions noted are these: for Lung metastasis / tumor resistance in pretreated mice: 5 i.v. pretreatments every 3 days, then 700,000 B16 cells co-injected with same agent; for Lung metastasis / tumor development in naïve mice: no pretreatment, agent co-injected with B16 cells. In kind it is in vivo, mouse. The procedure:
FIG. 4: Sustained iNKT activation in vivo due to repeated injections of αGalCer/sCD1d prevents formation of lung metastases. Mice were treated 5 times with PBS (Control, white), αGalCer (0.4 μg, light grey), or αGalCer/sCD1d (sCD1d, 20 μg, black) and then grafted with 700,000 B16 wild type cells plus co-injection of the respective treatment. 2 naive groups were included that had no pretreatment and got only tumor cell graft+co-injection of αGalCer (striped grey) or αGalCer/sCD1d (sCD1d, dark striped grey) respectively. Lung metastases formation was analysed 2 weeks after graft with the ImageJ k-means clustering program and results are expressed as percent of black metastatic surface over total lung surface. P values for αGalCer/sCD1d pretreated and naive+αGalCer groups compared to control *P<0.04, and compared to αGalCer pretreated group *P<0.02.
(§1) Quantification of lung metastasis. Metastatic nodule surface area was measured on 2560×1920 pixels photographs of the whole organs, taken on an Zeiss STEMI SV11 dissection microscope (Carl Zeiss, Jena, Germany) equipped with a PROGRES-C10plus Color Camera (Jenoptik, Jena, Germany). Each image was analyzed with the ImageJ program (rsb.info.nih.gov/ij/) using a k-means clustering algorithm (plugin available on ij-plugins.sourceforge.net). Images were segmented into 9 segments cluster tolerance 1×10−4, randomization seed: 48) and the appropriate segments were selected based on the color of the metastasis reaching the surface of the organ. The area of the sum of selected color segments was expressed as percentage of the area occupied by the lungs. Both sides of the lung were analyzed. This method takes into account both the number and the size of the tumor nodules. Since nodules are often heterogenous the percentage of metastatic lung surface area is a more sensitive measure of tumor growth than just counting tumor nodules.
This is most likely due to the anergic state of iNKT cells induced by free αGalCer. In contrast, in naïve mice, opposite results were obtained. […] The key finding is that multiple prior injections of αGalCer loaded recombinant CD1d molecules but not of free αGalCer confers resistance to tumor development.

A further experiment concerns B16 wild type cells. Put plainly: Precoating experiment, lung metastases of B16 wild type cells. In kind it is in vivo, mouse. The conditions noted are these: cells pre-incubated with agent, injected i.v. into naïve mice. Here is the method:
FIG. 5: Precoating experiment.
as §1
This affect may be caused by a transient association of the αGalCer with the tumor cell surface, or by transient uptake of the free αGalCer.

The subject of a further experiment is B16-HER2 melanoma cells. Put plainly: Systemic treatment of B16-HER2 lung metastases. In kind it is in vivo, mouse. The conditions noted are these: 5 i.v. injections starting 48 hours after tumor graft. Here is the method:
FIG. 6: In vivo anti tumor activity—Systemic Treatment. a Mice were grafted i.v. with 700.000 B16-HER2 cells and i.v. treatment was started 48 hours later. Mice were injected i.v. 5 times every 2 to 3 days with PBS (control), αGalCer (0.4 μg), αGalCer/sCD1d (sCD1d, 25 μg), or αGalCer/CD1d-anti-HER2 fusion (Fusion, 40 μg). Lung metastases were analysed after 3 weeks by the ImageJ k-means clustering program and expressed as percent metastatic surface over total lung surface. […] Mice were injected i.v. with 700,000 B16-HER2 cells and treatment with PBS (Control), αGalCer, or αGalCer/CD1d-anti-HER2 fusion protein (Fusion) was started 6 days after graft. Mice were treated 3× i.v. every 2-3 days and lung metastases were analyzed after 3 weeks as described above.
Quantification of lung metastasis. Metastatic nodule surface area was measured on 2560×1920 pixels photographs of the whole organs, taken on an Zeiss STEMI SV11 dissection microscope (Carl Zeiss, Jena, Germany) equipped with a PROGRES-C10plus Color Camera (Jenoptik, Jena, Germany). Each image was analyzed with the ImageJ program (rsb.info.nih.gov/ij/) using a k-means clustering algorithm (plugin available on ij-plugins.sourceforge.net). […] The area of the sum of selected color segments was expressed as percentage of the area occupied by the lungs. Both sides of the lung were analyzed. […]

The next experiment has as its system liver NK cells. Description: Transactivation of NK cells: liver NK1.1+ CD3- cells after single injection. In kind it is in vivo, mouse. The conditions noted are these: 20 hours after single i.p. injection. The text has this:
(§2) Cells were stained with anti NK1.1-PE and anti CD3-FITC and analysed by flow cytometry. NK cells are reported as NK1.1 positive/CD3 negative population. b c Induction of DC maturation and T cell proliferation by αGalCer/sCD1d activated NKT cells in vivo. Splenocytes were isolated after five treatments i.v. with either PBS (control), αGalCer, or αGalCer/sCD1d and cultured for 4 days with GM-CSF and then 3 more days with either PBS (control, white bars), αGalCer (grey bars), or αGalCer/sCD1d (sCD1d, black bars). Cells were then stained with anti CD11c-FITC and biotinylated anti CD40 and Streptavidin-PE to detect double positive mature DCs (c), or with anti NK1.1-PE and anti CD3-FITC to detect CD3 single positive T cells (d) by flow cytometry.
(§3) In absence of a specific antigen: Several reports have described the capacity of iNKT cells to transactivate NK, DC and T cells upon activation with free αGalCer or αGalCer-pulsed dendritic cells (Nieda, M., et al. Blood 103:383-389 (2004); Hermans, I. F., et al. J Immunol 171:5140-5147 (2003); Smyth, M. J., et al. J Exp Med 201:1973-1985 (2005)). […] Markers for DC maturation were also analyzed after 5 days in vitro culture of splenocytes isolated at the end of a systemic treatment, as described in Example 1. […]

For experiment [1], the system named is splenocytes, CD11c+ CD40+ DC. Put plainly: DC maturation (CD11c+ CD40+) in splenocyte cultures of treated mice. In kind it is cell-based, mouse. The conditions noted are these: in vitro stimulation of splenocytes isolated after systemic treatment.
From the text: as §2, §3

The subject of experiment [2] is splenocytes, CD3+ T cells. Put plainly: Conventional T cells (CD3+) in splenocyte cultures of treated mice. In kind it is cell-based, mouse. The following applies: for Conventional T cell population of CD3+ cells, in words: in vitro stimulation of splenocyte cultures; for Percentage of CD3+ cells of total spleen cells: in vitro stimulation, 7% without stimulation.
From the text: as §2
In absence of a specific antigen: Several reports have described the capacity of iNKT cells to transactivate NK, DC and T cells upon activation with free αGalCer or αGalCer-pulsed dendritic cells (Nieda, M., et al. Blood 103:383-389 (2004); Hermans, I. F., et al. J Immunol 171:5140-5147 (2003); Smyth, M. J., et al. J Exp Med 201:1973-1985 (2005)). […] Regarding NK cells, their frequency indeed increased after a single injection of free αGalCer or of αGalCer/sCD1d with or without anti HER2, as shown by the increase of the NK1.1^+ CD3^− cell population (FIG. 7a). Markers for DC maturation were also analyzed after 5 days in vitro culture of splenocytes isolated at the end of a systemic treatment, as described in Example 1. […] From 7% of total spleen cells without stimulation, percentage of CD3^+ cells increased to 17, 27 and 30%, respectively in naïve, αGalCer and αGalCer/sCD1d treated mice.

Take `CCCCCCCCCCCCCCCCCCCCCCCCCC(=O)N[C@@H](CO[C@H]1O[C@H](CO)[C@H](O)[C@H](O)[C@H]1O)[C@H](O)[C@H](O)CCCCCCCCCCCCCC` [αGalCer, α-galactosylceramide, reference compound]: in the experiment on B16 melanoma cells, the “Lung metastasis / tumor resistance in pretreated mice” value is listed as “not able to block lung metastasis” and the “Lung metastasis / tumor development in naïve mice” value is on record as “completely blocked tumor development”. For the same molecule, the “Lung metastases of precoated B16 wild type cells” value in the experiment on B16 wild type cells is “completely inhibited tumor development”. Further, the “Anti tumor effect in words” value with B16-HER2 melanoma cells was “no significant anti tumor effect”. Also, in the experiment on liver NK cells, the “NK cell frequency (NK1.1+ CD3- population)” value is reported as “increased”. Moreover, the “Percentage of CD11c+ CD40+ double positive cells” value in experiment [1] is reported as “had no effect in any of the mice”. In addition, the “Conventional T cell population of CD3+ cells, in words” value in experiment [2] is given as “no significant effect”.

B1: αGalCer/sCD1d: soluble monomeric mouse β2m-CD1d, His-tagged, loaded with αGalCer (protein)
chain: IQKTPQIQVYSRHPPENGKPNILNCYVTQFHPPHIEIQMLKNGKKIPKVEMSDMSFSKDWSFYILAHTEFTPTETDTYACRVKHASMAEPKTVYWDRDMGGGGSGGSGSGGGSEAQQKNYTFRCLQMSSFANRSWSRTDSVVWLGDLQTHRWSNDSATISFTKPWSQGKLSNQQWEKLQHMFQVYRVSFTRDIQELVKMMSPKEDYPIEIQLSAGCEMYPGNASESFLHVAFQGKYVVRFWGTSWQTVPGAPSWLDLPIKVLNADQGTSATVQMLLNDTCPLFVRGLLEAGKSDLEKQEKPVAWLSSVPSSADGHRQLVCHVSGFYPKPVWVMWMRGDQEQQGTHRGDFLPNADETWYLQATLDVEAGEEAGLACRVKHSSLGGQDIILYWSSGSGGHHHHHH
For the molecule B1, in the experiment with B16 melanoma cells, the “Lung metastasis / tumor resistance in pretreated mice” value is on record as “rendered them resistant to B16 melanoma cells”. The “Lung metastasis / tumor development in naïve mice” value in the experiment with B16 melanoma cells is “had no effect”. The “Lung metastases of precoated B16 wild type cells” value in the experiment with B16 wild type cells was “not able to block tumor growth”. Moreover, in the experiment on B16-HER2 melanoma cells, the “Anti tumor effect in words” value is listed as “anti tumor activity which was very variable from mouse to mouse”. Besides, in the experiment with liver NK cells, the “NK cell frequency (NK1.1+ CD3- population)” value is listed as “increased”. For the same molecule, in experiment [1], the “Percentage of CD11c+ CD40+ double positive cells” value is listed as “increased”. Moreover, the “Conventional T cell population of CD3+ cells, in words” value in experiment [2] was “significantly increased”. The “Percentage of CD3+ cells of total spleen cells” value in experiment [2] (splenocytes of naïve mice) came out at 17%; in experiment [2] (splenocytes of αGalCer treated mice) it was 27%; in experiment [2] (splenocytes of αGalCer/sCD1d treated mice), 30%.
